The text below walks through data of publication PMC2637153.

As a reminder, the stoichiometry N is the number of molecules, sites or subunits per partner or assembly.

The target of assay [1] is Allochromatium vinosum DsrC Cys100Ser (Allochromatium vinosum). As to the kind of experiment: SEC. For orientation: In gel filtration, larger molecules generally elute earlier.
In assay [2] the target is Allochromatium vinosum DsrC, wild type, recombinant with amino-terminal His tag (Allochromatium vinosum). Put plainly: SEC.

“Allochromatium vinosum DsrC Cys100Ser (natural protein)” registered a stoichiometry N in assay [1] of 2.

In the case of “Allochromatium vinosum DsrC, wild type, recombinant with amino-terminal His tag (natural protein)”, the stoichiometry N in assay [2] was determined as 2.
